Results published in the supplement of paper PMC10567573.

B1: MYBL2 (parent)
chain: FSPSQFLNFWNKQDTLELESPSLT

Variants of: B1
Test: protein stability index of a GFP-peptide fusion (GPS, HEK-293T) (PSI 1-6); higher = more stable
Conditions: c terminus: a fixed tail appended
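Further: lentivirally expressed fusions sorted by FACS into six bins by GFP to DsRed ratio, PSI derived from sequencing read proportions per bin multiplied by bin number.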

Variant	protein stability index
FSPSQFANFWNKQDTLELESPSLT [L7A]	3.29
FSPSQFFNFWNKQDTLELESPSLT [L7F]	2.6
FSPSQFCNFWNKQDTLELESPSLT [L7C]	3.24
FSDSQFLNFWNKQDTLELESPSLT [P3D]	3.71
FSESQFLNFWNKQDTLELESPSLT [P3E]	1.6
FSISQFLNFWNKQDTLELESPSLT [P3I]	3.19
FSFSQFLNFWNKQDTLELESPSLT [P3F]	3.08
FSSSQFLNFWNKQDTLELESPSLT [P3S]	2.18
FSTSQFLNFWNKQDTLELESPSLT [P3T]	2.94
FSNSQFLNFWNKQDTLELESPSLT [P3N]	2.38
FSASQFLNFWNKQDTLELESPSLT [P3A]	3.83
FSMSQFLNFWNKQDTLELESPSLT [P3M]	2.3
FSQSQFLNFWNKQDTLELESPSLT [P3Q]	3.52
FSHSQFLNFWNKQDTLELESPSLT [P3H]	1.94
FSGSQFLNFWNKQDTLELESPSLT [P3G]	2.41
FSLSQFLNFWNKQDTLELESPSLT [P3L]	2.69
FSVSQFLNFWNKQDTLELESPSLT [P3V]	1.77
FSWSQFLNFWNKQDTLELESPSLT [P3W]	2.18
FSKSQFLNFWNKQDTLELESPSLT [P3K]	2.02
FSRSQFLNFWNKQDTLELESPSLT [P3R]	2.39
FSYSQFLNFWNKQDTLELESPSLT [P3Y]	3.74
QSPSQFLNFWNKQDTLELESPSLT [F1Q]	3.74
YSPSQFLNFWNKQDTLELESPSLT [F1Y]	4.39
VSPSQFLNFWNKQDTLELESPSLT [F1V]	3.72

Variant	protein stability index
RSPSQFLNFWNKQDTLELESPSLT [F1R]	3.06
WSPSQFLNFWNKQDTLELESPSLT [F1W]	2.73
SSPSQFLNFWNKQDTLELESPSLT [F1S]	4.11
TSPSQFLNFWNKQDTLELESPSLT [F1T]	3.75
FSPAQFLNFWNKQDTLELESPSLT [S4A]	2.14
FSPNQFLNFWNKQDTLELESPSLT [S4N]	3.63
FSPCQFLNFWNKQDTLELESPSLT [S4C]	2.91
FSPFQFLNFWNKQDTLELESPSLT [S4F]	3.04
FSPQQFLNFWNKQDTLELESPSLT [S4Q]	4.58
FSPMQFLNFWNKQDTLELESPSLT [S4M]	3.27
FSPKQFLNFWNKQDTLELESPSLT [S4K]	2.53
FSPWQFLNFWNKQDTLELESPSLT [S4W]	2.35
FSPTQFLNFWNKQDTLELESPSLT [S4T]	3.36
FSPYQFLNFWNKQDTLELESPSLT [S4Y]	2.98
FSPEQFLNFWNKQDTLELESPSLT [S4E]	2
FSPLQFLNFWNKQDTLELESPSLT [S4L]	2.12
FSPHQFLNFWNKQDTLELESPSLT [S4H]	2
FSPPQFLNFWNKQDTLELESPSLT [S4P]	2.14
FSPIQFLNFWNKQDTLELESPSLT [S4I]	4.06
FSPGQFLNFWNKQDTLELESPSLT [S4G]	4.19
FSPDQFLNFWNKQDTLELESPSLT [S4D]	1.79
FSPVQFLNFWNKQDTLELESPSLT [S4V]	2.57
FSPSSFLNFWNKQDTLELESPSLT [Q5S]	2.83
FSPSMFLNFWNKQDTLELESPSLT [Q5M]	2.95

Variant	protein stability index
FSPSRFLNFWNKQDTLELESPSLT [Q5R]	2.6
FSPSWFLNFWNKQDTLELESPSLT [Q5W]	2.86
FSPSAFLNFWNKQDTLELESPSLT [Q5A]	2.55
FSPSKFLNFWNKQDTLELESPSLT [Q5K]	2.44
FSPSDFLNFWNKQDTLELESPSLT [Q5D]	2.75
FSPSTFLNFWNKQDTLELESPSLT [Q5T]	3.6
FSPSYFLNFWNKQDTLELESPSLT [Q5Y]	2.29
FSPSGFLNFWNKQDTLELESPSLT [Q5G]	3.07
FSPSPFLNFWNKQDTLELESPSLT [Q5P]	3.49
FSPSHFLNFWNKQDTLELESPSLT [Q5H]	2.79
FSPSFFLNFWNKQDTLELESPSLT [Q5F]	2.31
FSPSCFLNFWNKQDTLELESPSLT [Q5C]	3.02
FSPSNFLNFWNKQDTLELESPSLT [Q5N]	2.27
FVPSQFLNFWNKQDTLELESPSLT [S2V]	3.06
FQPSQFLNFWNKQDTLELESPSLT [S2Q]	2.71
FPPSQFLNFWNKQDTLELESPSLT [S2P]	2.13
FMPSQFLNFWNKQDTLELESPSLT [S2M]	3.62
FFPSQFLNFWNKQDTLELESPSLT [S2F]	2.14
FIPSQFLNFWNKQDTLELESPSLT [S2I]	3.87
FLPSQFLNFWNKQDTLELESPSLT [S2L]	2.79
FRPSQFLNFWNKQDTLELESPSLT [S2R]	2.26
FKPSQFLNFWNKQDTLELESPSLT [S2K]	1.99
FHPSQFLNFWNKQDTLELESPSLT [S2H]	3.45
FDPSQFLNFWNKQDTLELESPSLT [S2D]	1.92

Variant	protein stability index
FTPSQFLNFWNKQDTLELESPSLT [S2T]	3
FCPSQFLNFWNKQDTLELESPSLT [S2C]	2.66
FYPSQFLNFWNKQDTLELESPSLT [S2Y]	1.63
FAPSQFLNFWNKQDTLELESPSLT [S2A]	2.65
FWPSQFLNFWNKQDTLELESPSLT [S2W]	2.98
FEPSQFLNFWNKQDTLELESPSLT [S2E]	2.08
FNPSQFLNFWNKQDTLELESPSLT [S2N]	2.38
FSPSQCLNFWNKQDTLELESPSLT [F6C]	1.61
FSPSQVLNFWNKQDTLELESPSLT [F6V]	2.39
FSPSQTLNFWNKQDTLELESPSLT [F6T]	1.5
FSPSQPLNFWNKQDTLELESPSLT [F6P]	3
FSPSQWLNFWNKQDTLELESPSLT [F6W]	2.7
FSPSQRLNFWNKQDTLELESPSLT [F6R]	3.66
FSPSQKLNFWNKQDTLELESPSLT [F6K]	2.86
FSPSQNLNFWNKQDTLELESPSLT [F6N]	2.21
FSPSQLLNFWNKQDTLELESPSLT [F6L]	4.19
FSPSQELNFWNKQDTLELESPSLT [F6E]	4
FSPSQQLNFWNKQDTLELESPSLT [F6Q]	3.08
FSPSQDLNFWNKQDTLELESPSLT [F6D]	2.59
FSPSQHLNFWNKQDTLELESPSLT [F6H]	2.6
FSPSQSLNFWNKQDTLELESPSLT [F6S]	2.31
FSPSQALNFWNKQDTLELESPSLT [F6A]	2.02
